“And” between values parts separate entries of the source, which are not always exact repeats. Equal entries are not always repeated. Where two headings read alike, the source gives them in different places.
Tests used:
[1] = target: HIV-1 Gag polyprotein in the immature Gag lattice of purified virus particles (HIV-1); test: cryo-EM structure
[2] = target: HIV-1 Gag polyprotein in the immature Gag lattice of purified virus particles (HIV-1); test: cryo-EM structure; remark: listed apart in the source

HIV-1 Gag polyprotein in the immature Gag lattice of purified virus particles (natural protein)
stoichiometry N [1]: 3 and 5 | stoichiometry N [2]: 2

Reference: article doi:10.1101/2020.10.01.322081
